# Laboratory results taken from publication PMC12329532.
# Molecular target: N-terminally His6-tagged human IDO1 (indoleamine 2,3-dioxygenase 1), purified apo-IDO1 (human) (UniProt P14902)
# Sequence (P14902 whole entry): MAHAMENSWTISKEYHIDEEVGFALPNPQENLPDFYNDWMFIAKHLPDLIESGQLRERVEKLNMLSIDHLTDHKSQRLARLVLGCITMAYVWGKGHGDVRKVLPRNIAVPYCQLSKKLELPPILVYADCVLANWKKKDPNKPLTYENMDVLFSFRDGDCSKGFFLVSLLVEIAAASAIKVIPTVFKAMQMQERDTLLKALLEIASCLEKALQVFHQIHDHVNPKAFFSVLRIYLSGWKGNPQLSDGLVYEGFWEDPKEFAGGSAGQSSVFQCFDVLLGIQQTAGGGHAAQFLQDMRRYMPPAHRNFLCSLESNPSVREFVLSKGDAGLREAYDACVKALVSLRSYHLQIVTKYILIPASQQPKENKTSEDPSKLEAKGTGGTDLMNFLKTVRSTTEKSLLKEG
substance,measurement,value
"human recombinant TC-GAPDH (GAPDH with a tetra-Cys insertion sequence near its heme binding site), wild type, purified (from UniProt P04406 1-335) (enzyme)",IDO1 catalytic activity after the heme transfer reaction with the TC-GAPDH-heme complex,2 fold
same,decrease in heme content of TC-GAPDH (UV-vis) after 30 min at 37 °C with apo-IDO1 and separation by gel filtration,50%
